Kd, koff and kon data for 16 molecules are collected here from patent US20260193326A1 (published 2026).

What is called Kd is a measure of binding affinity in units of concentration. Read a low Kd as a tighter complex. What is called koff is a measure of how fast the partners let go of each other. As usually defined, the kon is the rate constant with which the complex forms. Low values mean slower complex formation, high ones faster complex formation.

Positions count from the first letter of the chain named.

B1: A4-034 (VHH)
VHH: VQLQESGGGLVQPGGSLRLSCAASGRGFSINTMGWYRQAPGKQRELVAAVTRGGTTNYADSVKGRFTISRDNAKNTVYLQMNSLRPEDTAVYYCHVDEVRQSSWTTSNLWGQGTQVTVSS
B2: A4-032 (VHH)
VHH: B1 VHH with A22V, R26S, G27S, A49T, G53D, T55S, D60N
B3: A4-012 (VHH)
VHH: B1 VHH with L10A, P13A, R26S, G27I, T32S, A49T, T55N, D60G, Q101E
B4: A4-011 (VHH)
VHH: B1 VHH with P13A, R26S, G27I, T32S, A49T, T55N, D60G, Q101E
B5: A4-001 (VHH)
VHH: B1 VHH with G27S, A49T, T55S, D60G, V96I, L109I
B6: A4-021 (VHH)
VHH: B1 VHH with P13A, R26S, G27T, A49T, V50I, T55N, L109I
B7: A4-024 (VHH)
VHH: B1 VHH with R26S, G27N, S29R, A49T, T55S, A73P, Q101E
B8: A4-102 (VHH)
VHH: B1 VHH with R26S, G27H, S29T, T32S, M33V, A49P, S61F, V99L, Q101D
B9: A4-107 (VHH)
VHH: B1 VHH with A22I, R26S, M33V, G41A, A49T, V50L, T55S, A73P, L109I
B10: A4-109 (VHH)
VHH: VQLQESGGGLVQAGGSLRLSCAASGTIFSLNVMGWYRQAPGKQRELVASVTRGGNTNYADSVKGRFTISRDNAKTTVYLQMNSLRPEDTAVYYCHVDELRDSTWTTSNLWGQGTQVTVSS
B11: A4-106 (VHH)
VHH: VQLQESGGGLVQPGGSLRLSCIASGSIFSLNAMGWYRQAPGKQRELVATITSGGSTNYADSVKGRFTISRDNAKNTAYLQMNNLQPEDTAVYYCHVDEVRESIWTTSNLWGQGTQVTVSS
B12: A4-104 (VHH)
VHH: B11 VHH with I22A, A32S, D60G, A77V, I103S
B13: A4-110 (VHH)
VHH: VQLQESGGGLVQPGGSLRLSCFASGTNFSINVVGWYRQAPGKQRELVATITRGGSTNYAESVKGRFTISRDNAKNTVYLQMNNLRPEDTAVYYCHLDEVRDSSWTTSNLWGQGTQVTVSS
B14: A4-108 (VHH)
VHH: VQLQESGGGLAQPGGSLRLSCLASGSGFSINTMGWYRQAPPKWRELVATVTRGGSTNYAGSVKGRFTISRDNPKNTVYLQMNSLRPEDTAVYYCHLDEVRQSTWTTSNIWGQGTQVTVSS
B15: A4-112 (VHH)
VHH: VQLQESGGGLVQTGGSLRLSCIASGSIFSINTVGWYRQAPPKQRELVATVTRAGSTWYAGSVKGRFTISRDNAKNTIYLQMNTLRPEDTAVYYCHVDEVRQSTWTTSNIWGQGTQVTVSS
B16: A4-113 (VHH)
VHH: B15 VHH with I22V, I27R, P41G, A53G, A73T, T83S, V99I, I109L

The target of one assay is T1, AAV2 (UniProt P03135 1-735).
T1 construct: also called adeno-associated virus serotype 2
As to the kind of experiment: SPR, AAV on CM5 chip.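 Further: surface plasmon resonance with AAV amine-coupled to the chip as ligand, nanobodies injected as analyte over a concentration series, rate constants and affinity fitted from binding curves.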 A general note: In SPR one partner is held on a chip, and binding of the other changes the refractive index at the surface.
Protocol: (§1) AAV was amine-coupled to a CM5 sensor chip at a density of 500-800 response units (RU). Nanobodies were injected at seven concentrations (1-100 nM) with a flow rate of 45 μL/min, and chip regeneration was performed using glycine-HCl (pH 1.5). Binding curves at different nanobody concentrations were used to calculate kinetic parameters (Kₐ, Kd, KD) (Table 2 and FIG. 2).
For B1, the Kd is 3.36 nM, the koff worked out at 0.00066 s⁻¹ and the on-rate (kon) is 196000 M⁻¹ s⁻¹.

B2: the Kd stood at 2.53 nM, the koff was found to be 0.0004 s⁻¹ and the kon stood at 158000 M⁻¹ s⁻¹.

In the case of B3, the Kd worked out at 1180 nM, the koff stood at 0.0554 s⁻¹ and the kon was found to be 47000 M⁻¹ s⁻¹.

As for B4, binding was characterised by a dissociation constant (Kd) of 284 nM, the koff came out at 0.0462 s⁻¹ and the kon amounted to 163000 M⁻¹ s⁻¹.

Take B5: the Kd was found to be 1.06 nM, the koff worked out at 6.35e-05 s⁻¹ and the kon is 60100 M⁻¹ s⁻¹.

B6: binding was characterised by a dissociation constant (Kd) of 0.798 nM, the off-rate (koff) was 4.37e-05 s⁻¹ and the kon was determined as 54800 M⁻¹ s⁻¹.

In turn, B7 had an equilibrium dissociation constant (Kd) of 639 nM and an off-rate constant (koff) of 0.00069 s⁻¹.

A further assay addresses T2, AAV9 (adeno-associated virus serotype 9).
T2 construct: also called adeno-associated virus serotype 9
As to the kind of experiment: SPR, AAV on CM5 chip.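 Further: surface plasmon resonance with AAV amine-coupled to the chip as ligand, nanobodies injected as analyte over a concentration series, rate constants and affinity fitted from binding curves.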
Protocol: as §1
Molecule B8 registered a Kd of 30.8 nM, a koff of 0.00465 s⁻¹ and an association rate constant (kon) of 151000 M⁻¹ s⁻¹.

In turn, B9 gave a Kd of 1680 nM, an off-rate (koff) of 0.00356 s⁻¹ and a kon of 2120 M⁻¹ s⁻¹.

In turn, B10 came in with a Kd of 42.4 nM, a koff of 0.00071 s⁻¹ and a kon of 16800 M⁻¹ s⁻¹.

With B11, the Kd is 1.65 nM, the koff turned out to be 0.00011 s⁻¹ and the kon amounted to 66600 M⁻¹ s⁻¹.

B12 showed a Kd of 451 nM, a koff of 0.00093 s⁻¹ and a kon of 2060 M⁻¹ s⁻¹.

In turn, B13 came in with a Kd of 347 nM, a koff of 0.0014 s⁻¹ and a kon of 4040 M⁻¹ s⁻¹.

As for B14, binding was put at a Kd of 3.54 nM, the koff was found to be 0.00061 s⁻¹ and the kon is 172000 M⁻¹ s⁻¹.

B15 came in with a dissociation constant (Kd) of 36.6 nM, an off-rate constant (koff) of 0.0052 s⁻¹ and a kon of 142000 M⁻¹ s⁻¹.

The molecule B16 showed a Kd of 52.5 nM, a koff of 0.00051 s⁻¹ and a kon of 9720 M⁻¹ s⁻¹.

Another assay addresses T3, AAV5 (adeno-associated virus serotype 5).
T3 construct: also called adeno-associated virus serotype 5
As to the kind of experiment: SPR, AAV on CM5 chip.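 Further: surface plasmon resonance with AAV amine-coupled to the chip as ligand, nanobodies injected as analyte over a concentration series, rate constants and affinity fitted from binding curves.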
Protocol: as §1
B8 registered a Kd of 40.4 nM, a koff of 0.007 s⁻¹ and a kon of 173000 M⁻¹ s⁻¹.

Turning to B9, binding was put at a Kd of 703 nM, the koff was 0.00353 s⁻¹ and the kon is 5020 M⁻¹ s⁻¹.

B10 yielded a Kd of 3.74 nM, a koff of 0.00022 s⁻¹ and a kon of 58800 M⁻¹ s⁻¹.

B11 had a Kd of 2.12 nM, a koff of 0.00042 s⁻¹ and an association rate constant (kon) of 198000 M⁻¹ s⁻¹.

With B12, the Kd stood at 44 nM, the koff was found to be 0.00037 s⁻¹ and the kon stood at 8420 M⁻¹ s⁻¹.

Molecule B13 registered a dissociation constant (Kd) of 37.8 nM, a koff of 0.00035 s⁻¹ and an on-rate (kon) of 9270 M⁻¹ s⁻¹.

Molecule B14 showed a Kd of 7.12 nM, a dissociation rate constant (koff) of 0.00105 s⁻¹ and a kon of 148000 M⁻¹ s⁻¹.

In turn, B15 came in with a Kd of 31.6 nM, a koff of 0.00412 s⁻¹ and a kon of 130000 M⁻¹ s⁻¹.

As for B16, binding was put at a Kd of 218 nM, the koff is 0.00145 s⁻¹ and the kon was determined as 6660 M⁻¹ s⁻¹.

Another assay concerns the target T4, AAV8.
T4 construct: also called adeno-associated virus serotype 8
As to the kind of experiment: SPR, AAV on CM5 chip.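 Further: surface plasmon resonance with AAV amine-coupled to the chip as ligand, nanobodies injected as analyte over a concentration series, rate constants and affinity fitted from binding curves.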
Protocol: as §1
Consider B1, for which binding was put at a Kd of 7.84 nM, the koff was found to be 0.00047 s⁻¹ and the kon worked out at 59900 M⁻¹ s⁻¹.

Molecule B2 registered a Kd of 12.8 nM, an off-rate constant (koff) of 0.00169 s⁻¹ and a kon of 132000 M⁻¹ s⁻¹.

Regarding B3, binding was put at a Kd of 324 nM, the koff came to 0.00417 s⁻¹ and the kon was 12900 M⁻¹ s⁻¹.

Molecule B4 showed a Kd of 30.4 nM, a koff of 0.00272 s⁻¹ and a kon of 89400 M⁻¹ s⁻¹.

B5 showed a Kd of 3.64 nM, a koff of 0.000669 s⁻¹ and a kon of 184000 M⁻¹ s⁻¹.

B6 yielded a Kd of 7.41 nM, a koff of 0.00155 s⁻¹ and a kon of 209000 M⁻¹ s⁻¹.

In turn, B7 gave a Kd of 209 nM, a koff of 0.00148 s⁻¹ and a kon of 7080 M⁻¹ s⁻¹.

The target of a further assay is T5, AAV5.
T5 construct: also called adeno-associated virus serotype 5
As to the kind of experiment: SPR, AAV on CM5 chip.
Protocol: as §1
For B1, the dissociation constant (Kd) came out at 12.2 nM, the koff is 0.00021 s⁻¹ and the kon stood at 17200 M⁻¹ s⁻¹.

Molecule B2 showed a Kd of 6.7 nM, a koff of 0.0009 s⁻¹ and a kon of 134000 M⁻¹ s⁻¹.

In turn, B3 returned a Kd of 18.6 nM, a koff of 0.00173 s⁻¹ and a kon of 93100 M⁻¹ s⁻¹.

B4 showed a Kd of 29.6 nM, a koff of 0.00028 s⁻¹ and a kon of 9460 M⁻¹ s⁻¹.

With B5, binding was characterised by a dissociation constant (Kd) of 6.47 nM, the koff stood at 0.00098 s⁻¹ and the kon worked out at 151000 M⁻¹ s⁻¹.

On to B6, for which the affinity, expressed as Kd, was 7.81 nM; the koff turned out to be 0.00094 s⁻¹; the on-rate constant (kon) amounted to 120000 M⁻¹ s⁻¹.

Turning to B7, the dissociation constant (Kd) was 35.5 nM, the koff came out at 0.00013 s⁻¹ and the kon came out at 3670 M⁻¹ s⁻¹.

In another assay the target is T6, AAV8 (adeno-associated virus serotype 8).
T6 construct: also called adeno-associated virus serotype 8
As to the kind of experiment: SPR, AAV on CM5 chip.
Protocol: as §1
For B8, binding was put at a Kd of 7.86 nM, the koff was 0.0006 s⁻¹ and the kon came to 76300 M⁻¹ s⁻¹.

On to B9, for which the affinity, expressed as Kd, was 848 nM; the koff was 0.00101 s⁻¹; the kon worked out at 1190 M⁻¹ s⁻¹.

The molecule B10 registered a Kd of 2.27 nM, a koff of 0.00035 s⁻¹ and a kon of 154000 M⁻¹ s⁻¹.

Molecule B11 gave a Kd of 16 nM, a koff of 0.00191 s⁻¹ and a kon of 120000 M⁻¹ s⁻¹.

Turning to B12, the affinity, expressed as Kd, was 10.5 nM; the off-rate (koff) is 3e-05 s⁻¹; the kon is 2860 M⁻¹ s⁻¹.

B13: the Kd came out at 860 nM, the koff is 0.00596 s⁻¹ and the kon was found to be 6930 M⁻¹ s⁻¹.

In the case of B14, the Kd was determined as 7.94 nM, the koff came to 0.00085 s⁻¹ and the kon amounted to 107000 M⁻¹ s⁻¹.

As for B15, the dissociation constant (Kd) was 1.11 nM, the off-rate constant (koff) stood at 0.00021 s⁻¹ and the kon was 188000 M⁻¹ s⁻¹.

In the case of B16, the Kd came to 3.25 nM, the koff was 2e-05 s⁻¹ and the kon came to 6150 M⁻¹ s⁻¹.

A further assay deals with T7, AAV9.
T7 construct: also called adeno-associated virus serotype 9
As to the kind of experiment: SPR, AAV on CM5 chip.
Protocol: as §1
Regarding B1, the Kd was 6.8 nM, the koff was determined as 0.00129 s⁻¹ and the kon was 190000 M⁻¹ s⁻¹.

For B2, binding was characterised by a dissociation constant (Kd) of 16.4 nM, the koff is 0.00108 s⁻¹ and the kon stood at 65900 M⁻¹ s⁻¹.

B3 had a Kd of 672 nM, a koff of 0.0694 s⁻¹ and an on-rate (kon) of 103000 M⁻¹ s⁻¹.

Regarding B4, the Kd worked out at 132 nM, the koff came out at 0.0582 s⁻¹ and the kon amounted to 439000 M⁻¹ s⁻¹.

For B5, binding was characterised by a dissociation constant (Kd) of 142 nM, the koff stood at 0.0116 s⁻¹ and the kon amounted to 81600 M⁻¹ s⁻¹.

Turning to B6, the Kd turned out to be 1.87 nM, the koff is 0.00014 s⁻¹ and the kon was determined as 74700 M⁻¹ s⁻¹.

Take B7: binding was put at a Kd of 251 nM, the koff turned out to be 0.00173 s⁻¹ and the kon is 6900 M⁻¹ s⁻¹.
